Test results as given in US20230192860A1 (Bristol-Myers Squibb, published 2023).

How the values were obtained:
hVISTA-ECD 6-His tag [1] = target: T1, hVISTA-ECD 6-His tag (human, UniProt Q9H7M9 33-193); assay: SPR 37 C, Ab on Protein A, pH 6.0
T1 construct: also called monovalent hVISTA-ECD; human VISTA

hVISTA-ECD 6-His tag [2] = target: T1, hVISTA-ECD 6-His tag; assay: SPR 37 C, Ab on Protein A, pH 7.4
[3] = target: T2, monovalent hVISTA-ECD with polyhistidine tail (SEQ ID NO: 325) (human, UniProt Q9H7M9 33-193); assay: SPR, mAb captured on Protein A chip, hVISTA injected, PBST pH 6.0, 37 C
T2 construct: also called hVISTA-ECD 6-His tag; human VISTA
T2 sequence (Q9H7M9 other isoform, or with tags, fused parts or gaps limits assumed): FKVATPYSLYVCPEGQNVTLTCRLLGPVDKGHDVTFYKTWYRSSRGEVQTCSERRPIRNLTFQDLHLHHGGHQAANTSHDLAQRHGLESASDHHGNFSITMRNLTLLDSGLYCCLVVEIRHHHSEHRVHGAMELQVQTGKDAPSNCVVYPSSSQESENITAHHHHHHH

[4] = target: T2, monovalent hVISTA-ECD with …; assay: SPR, mAb captured on Protein A chip, hVISTA injected, PBST pH 7.4, 37 C

T1 sequence (Q9H7M9 other isoform, or with tags, fused parts or gaps limits assumed): as above

Row | Kd (hVISTA-ECD 6-His tag [1]) [nM] | koff (hVISTA-ECD 6-His tag [1]) [s⁻¹] | kon (hVISTA-ECD 6-His tag [1]) [M⁻¹ s⁻¹] | Kd (hVISTA-ECD 6-His tag [2]) [nM] | koff (hVISTA-ECD 6-His tag [2]) [s⁻¹] | kon (hVISTA-ECD 6-His tag [2]) [M⁻¹ s⁻¹] | Kd [3] [nM] | koff [3] [s⁻¹] | kon [3] [M⁻¹ s⁻¹] | Kd [4] [nM] | koff [4] [s⁻¹] | kon [4] [M⁻¹ s⁻¹] | Binder
1 | 36 | 0.0077 | 210000 | 5200 | 0.061 | 12000 | – | – | – | – | – | – | P1-077855 (P1-068744 E31S E59Y) (antibody, V domains shown) VH: QVQLVESGGGVVQPGRSLRLSCAASGFTFSSYAMHWVRQAPGKGLEWVAHIWYDGSNKYYADSVKGRFTISRDNSKNTLYLQMNSLRAEDTAVYYCARDSGFYESYYFDEWGQGTLVTVSS VL: EIVLTQSPATLSLSPGERATLSCRASQSVSSSYLAWYQQKPGQAPRLLIYDASNRATGIPARFSGSGSGTDFTLTISSLEPEDFATYYCQQYNSYPYTFGQGTKLEIK
2 | – | – | – | – | – | – | 1.9 | 0.0016 | 830000 | 6.4 | 0.0022 | 340000 | P1-061015 (antibody, V domains shown, captured on a Protein A chip; also called parental antibody) VH: not shown VL: EIVLTQSPATLSLSPGERATLSCRASQSVSSSYLAWYQQKPGQAPRLLIYDASNRATGIPARFSGSGSGTDFTLTISSLEPEDFATYYCQQYNSYPYTFGQGTKLEIK
3 | – | – | – | – | – | – | 6.7 | 0.002 | 310000 | 510 | 0.035 | 68000 | P1-077883 (P1-068748 H31S D57K) (antibody, V domains shown, Reversion mutant of P1-068748 (Kabat names); captured on a Protein A chip) VH: QVQLVESGGGVVQPGRSLRLSCAASGFTFSSHAMHWVRQAPGKGLEWVAIIWYDGSNKDYADSVKGRFTISRDNSKNTLYLQMNSLRAEDTAVYYCARDSGFYDSYYFDYWGQGTLVTVSS VL: EIVLTQSPATLSLSPGERATLSCRASQSVSSSYLAWYQQKPGQAPRLLIYDASNRATGIPARFSGSGSGTDFTLTISSLEPEDFATYYCQQYNSYPYTFGQGTKLEIK
4 | – | – | – | – | – | – | 11 | 0.0035 | 310000 | 600 | 0.032 | 54000 | P1-068748 (antibody, V domains shown, captured on a Protein A chip) VH: QVQLVESGGGVVQPGRSLRLSCAASGFTFSHHAMHWVRQAPGKGLEWVAIIWYDGSNDDYADSVKGRFTISRDNSKNTLYLQMNSLRAEDTAVYYCARDSGFYDSYYFDYWGQGTLVTVSS VL: EIVLTQSPATLSLSPGERATLSCRASQSVSSSYLAWYQQKPGQAPRLLIYDASNRATGIPARFSGSGSGTDFTLTISSLEPEDFATYYCQQYNSYPYTFGQGTKLEIK
5 | – | – | – | – | – | – | 5.2 | 0.0028 | 540000 | 410 | 0.028 | 69000 | P1-077865 (P1-068748 H31S) (antibody, V domains shown, Reversion mutant of P1-068748 (Kabat names); captured on a Protein A chip) VH: QVQLVESGGGVVQPGRSLRLSCAASGFTFSSHAMHWVRQAPGKGLEWVAIIWYDGSNDDYADSVKGRFTISRDNSKNTLYLQMNSLRAEDTAVYYCARDSGFYDSYYFDYWGQGTLVTVSS VL: EIVLTQSPATLSLSPGERATLSCRASQSVSSSYLAWYQQKPGQAPRLLIYDASNRATGIPARFSGSGSGTDFTLTISSLEPEDFATYYCQQYNSYPYTFGQGTKLEIK
6 | – | – | – | – | – | – | 0.52 | 0.0011 | 2.1e+06 | 3 | 0.0027 | 910000 | P1-077887 (P1-068748 H31S D100S) (antibody, V domains shown, Reversion mutant of P1-068748 (Kabat names); captured on a Protein A chip) VH: QVQLVESGGGVVQPGRSLRLSCAASGFTFSSHAMHWVRQAPGKGLEWVAIIWYDGSNDDYADSVKGRFTISRDNSKNTLYLQMNSLRAEDTAVYYCARDSGFYSSYYFDYWGQGTLVTVSS VL: EIVLTQSPATLSLSPGERATLSCRASQSVSSSYLAWYQQKPGQAPRLLIYDASNRATGIPARFSGSGSGTDFTLTISSLEPEDFATYYCQQYNSYPYTFGQGTKLEIK
7 | 2.3 | 0.0032 | 1.4e+06 | 9.5 | 0.0044 | 460000 | – | – | – | – | – | – | P1-077859 (P1-068744 H50I E100S) (antibody, V domains shown) VH: QVQLVESGGGVVQPGRSLRLSCAASGFTFSEYAMHWVRQAPGKGLEWVAIIWYDGSNKYEADSVKGRFTISRDNSKNTLYLQMNSLRAEDTAVYYCARDSGFYSSYYFDEWGQGTLVTVSS VL: EIVLTQSPATLSLSPGERATLSCRASQSVSSSYLAWYQQKPGQAPRLLIYDASNRATGIPARFSGSGSGTDFTLTISSLEPEDFATYYCQQYNSYPYTFGQGTKLEIK
8 | 2.6 | 0.0023 | 870000 | 26 | 0.0027 | 100000 | – | – | – | – | – | – | P1-077861 (P1-068744 H50I E102Y) (antibody, V domains shown) VH: QVQLVESGGGVVQPGRSLRLSCAASGFTFSEYAMHWVRQAPGKGLEWVAIIWYDGSNKYEADSVKGRFTISRDNSKNTLYLQMNSLRAEDTAVYYCARDSGFYESYYFDYWGQGTLVTVSS VL: EIVLTQSPATLSLSPGERATLSCRASQSVSSSYLAWYQQKPGQAPRLLIYDASNRATGIPARFSGSGSGTDFTLTISSLEPEDFATYYCQQYNSYPYTFGQGTKLEIK
9 | – | – | – | – | – | – | 0.94 | 0.0018 | 1.9e+06 | 130 | 0.021 | 160000 | P1-077875 (P1-068748 H31S H32Y) (antibody, V domains shown, Reversion mutant of P1-068748 (Kabat names); captured on a Protein A chip) VH: QVQLVESGGGVVQPGRSLRLSCAASGFTFSSYAMHWVRQAPGKGLEWVAIIWYDGSNDDYADSVKGRFTISRDNSKNTLYLQMNSLRAEDTAVYYCARDSGFYDSYYFDYWGQGTLVTVSS VL: EIVLTQSPATLSLSPGERATLSCRASQSVSSSYLAWYQQKPGQAPRLLIYDASNRATGIPARFSGSGSGTDFTLTISSLEPEDFATYYCQQYNSYPYTFGQGTKLEIK
10 | – | – | – | – | – | – | 2.2 | 0.0019 | 840000 | 270 | 0.024 | 88000 | P1-077877 (P1-068748 H32Y D57K) (antibody, V domains shown, Reversion mutant of P1-068748 (Kabat names); captured on a Protein A chip) VH: QVQLVESGGGVVQPGRSLRLSCAASGFTFSHYAMHWVRQAPGKGLEWVAIIWYDGSNKDYADSVKGRFTISRDNSKNTLYLQMNSLRAEDTAVYYCARDSGFYDSYYFDYWGQGTLVTVSS VL: EIVLTQSPATLSLSPGERATLSCRASQSVSSSYLAWYQQKPGQAPRLLIYDASNRATGIPARFSGSGSGTDFTLTISSLEPEDFATYYCQQYNSYPYTFGQGTKLEIK
11 | 130 | 0.017 | 140000 | 1100 | 0.055 | 63000 | – | – | – | – | – | – | P1-077863 (P1-068744 E59Y E102Y) (antibody, V domains shown) VH: QVQLVESGGGVVQPGRSLRLSCAASGFTFSEYAMHWVRQAPGKGLEWVAHIWYDGSNKYYADSVKGRFTISRDNSKNTLYLQMNSLRAEDTAVYYCARDSGFYESYYFDYWGQGTLVTVSS VL: EIVLTQSPATLSLSPGERATLSCRASQSVSSSYLAWYQQKPGQAPRLLIYDASNRATGIPARFSGSGSGTDFTLTISSLEPEDFATYYCQQYNSYPYTFGQGTKLEIK
12 | – | – | – | – | – | – | 53 | 0.0034 | 62000 | 22 | 0.0036 | 160000 | P1-077881 (P1-068748 D58Y D100S) (antibody, V domains shown, Reversion mutant of P1-068748 (Kabat names); captured on a Protein A chip) VH: QVQLVESGGGVVQPGRSLRLSCAASGFTFSHHAMHWVRQAPGKGLEWVAIIWYDGSNDYYADSVKGRFTISRDNSKNTLYLQMNSLRAEDTAVYYCARDSGFYSSYYFDYWGQGTLVTVSS VL: EIVLTQSPATLSLSPGERATLSCRASQSVSSSYLAWYQQKPGQAPRLLIYDASNRATGIPARFSGSGSGTDFTLTISSLEPEDFATYYCQQYNSYPYTFGQGTKLEIK
13 | – | – | – | – | – | – | 2.2 | 0.0029 | 1.3e+06 | 230 | 0.026 | 120000 | P1-077867 (P1-068748 H32Y) (antibody, V domains shown, Reversion mutant of P1-068748 (Kabat names); captured on a Protein A chip) VH: QVQLVESGGGVVQPGRSLRLSCAASGFTFSHYAMHWVRQAPGKGLEWVAIIWYDGSNDDYADSVKGRFTISRDNSKNTLYLQMNSLRAEDTAVYYCARDSGFYDSYYFDYWGQGTLVTVSS VL: EIVLTQSPATLSLSPGERATLSCRASQSVSSSYLAWYQQKPGQAPRLLIYDASNRATGIPARFSGSGSGTDFTLTISSLEPEDFATYYCQQYNSYPYTFGQGTKLEIK
14 | 120 | 0.097 | 820000 | 520 | 0.16 | 300000 | – | – | – | – | – | – | P1-077857 (P1-068744 E31S E100S) (antibody, V domains shown) VH: QVQLVESGGGVVQPGRSLRLSCAASGFTFSSYAMHWVRQAPGKGLEWVAHIWYDGSNKYEADSVKGRFTISRDNSKNTLYLQMNSLRAEDTAVYYCARDSGFYSSYYFDEWGQGTLVTVSS VL: EIVLTQSPATLSLSPGERATLSCRASQSVSSSYLAWYQQKPGQAPRLLIYDASNRATGIPARFSGSGSGTDFTLTISSLEPEDFATYYCQQYNSYPYTFGQGTKLEIK
15 | – | – | – | – | – | – | 0.71 | 0.0012 | 1.8e+06 | 3.6 | 0.003 | 850000 | P1-077873 (P1-068748 D100S) (antibody, V domains shown, Reversion mutant of P1-068748 (Kabat names); captured on a Protein A chip) VH: QVQLVESGGGVVQPGRSLRLSCAASGFTFSHHAMHWVRQAPGKGLEWVAIIWYDGSNDDYADSVKGRFTISRDNSKNTLYLQMNSLRAEDTAVYYCARDSGFYSSYYFDYWGQGTLVTVSS VL: EIVLTQSPATLSLSPGERATLSCRASQSVSSSYLAWYQQKPGQAPRLLIYDASNRATGIPARFSGSGSGTDFTLTISSLEPEDFATYYCQQYNSYPYTFGQGTKLEIK
16 | – | – | – | – | – | – | 15 | 0.0026 | 170000 | 980 | 0.027 | 28000 | P1-077869 (P1-068748 D57K) (antibody, V domains shown, Reversion mutant of P1-068748 (Kabat names); captured on a Protein A chip) VH: QVQLVESGGGVVQPGRSLRLSCAASGFTFSHHAMHWVRQAPGKGLEWVAIIWYDGSNKDYADSVKGRFTISRDNSKNTLYLQMNSLRAEDTAVYYCARDSGFYDSYYFDYWGQGTLVTVSS VL: EIVLTQSPATLSLSPGERATLSCRASQSVSSSYLAWYQQKPGQAPRLLIYDASNRATGIPARFSGSGSGTDFTLTISSLEPEDFATYYCQQYNSYPYTFGQGTKLEIK
